From paper PMC3207290 (The Journal of Cell Biology, 2011)

Biological target: F-actin (polymerized rabbit muscle G-actin) (rabbit, UniProt P68135 1-377)
Assay: co-sedimentation

Kd: 809 ± 245 nM
B1: bovine GRK5-Flag (enzyme)
chain: MELENIVANTVLLKAREGGGGKRKGKSKKWKEILKFPHINQCEDLRRTIDRDYCSLCDKQPVGRLLFRQFCETRPGLESYIQFLDSVAEYEVTPDEKLGEKGKEIMTKYLTPKSPVFITQVGRDLVSQTEEKLLQKPCKELFSACVQSVHDYLRGEPFHEYLDSMYFDRFLQWKWLERQPVTKNTFRQYRVLGKGGFGEVCACQVRATGKMYACKRLEKKRIKKRKGESMALNEKQILEKVNSRFVVNLAYAYETKDALCLVLTIMNGGDLKFHIYNMGNPGFEEERALFYAAEILCGLEDLHHENIVYRDLKPENILLDDYGHIRISDLGLAVKIPEGDLIRGRVGTVGYMAPEVLNNQRYGLSPDYWGLGCLIYEMIEGQSPFRGRKEKVKREEVDRRVLETEEVYSHKFSEEAKSICKMLLTKDAKQRLGCQEEGAAEVKRHPFFRNMNFKRLEAGMLDPPFVPDPRAVYCKDVLDIEQFSTVKGVNLDHTDDDFYSKFSTGSVPIPWQSEMIETECFKELNVFGPHGTLSPDLNRSHPPEPPKKGLLQRLFKRQHQNNSKSSPNSKTSFNHHINSNHVSSNSTGSS
